Consider 3 molecules from US20200277373A1, “ANTI-TREM2 ANTIBODIES AND METHODS OF USE THEREOF” (Denali Therapeutics Inc., priority 2017, published 2020).

In test [1] the target is T1, TREM2 (Homo sapiens, UniProt Q9NZC2).
T1 construct: expressed in transfected cells
In words: PAM and single point pSyk screen, HEK293 TREM2/DAP12 cells, antibody with or without PS/PC liposomes. It is filed as cell-based. As for the experimental part:
Two days in advance of the experiment, HEK293 cells stably overexpressing TREM2 and DAP12 were plated at 40,000 cells/well on a 96 well poly-D-lysine-coated plate. In PAM experiments utilizing lipid vesicles, the lipid vesicles (see protocol below) were then mixed with the antibodies (at a constant concentration) on a 96-well plate using a Hamilton Nimbus liquid handler at a liposome concentration of 0, liposome EC20, EC50, or EC80 (see below) in PBS. In agonist experiments alone (no liposomes), antibodies were diluted without liposomes in PBS. The cells were washed 3× with HBSS with a Biotek 405/406 plate washer, then 50 μL of the liposome/antibody mixture was added per well using a Hamilton Nimbus liquid handler. The cell plate containing the liposome/antibodies was then transferred to a 37° C. incubator for 5 minutes. The liposome/antibody solution was removed by flicking the plate, and 40 μL lysis buffer (Cell Signaling Technologies, CST) was added using the liquid handler. […]
The liposomes were diluted in HBSS, and 50 μL of liposome solution was added per well to TREM2/DAP12-overexpressing cells using the Hamilton Nimbus liquid handler as in the above protocol. […] The pSyk response was measured as described above from 10 μL lysate, and the curve fit using a non-linear regression (4 parameter dose response) fit in Prism.

Test [2] addresses T2, hTREM2 (Homo sapiens, UniProt Q9NZC2).
T2 construct: The ecto domain (residues 19-172) of TREM2 (UniProtKB—Q9NZC2); secretion signal of mouse Ig kappa chain V-III (P01661 aa 1-20) (N); made in house; host or cells: Expi293F
T2 sequence (Q9NZC2 19-172): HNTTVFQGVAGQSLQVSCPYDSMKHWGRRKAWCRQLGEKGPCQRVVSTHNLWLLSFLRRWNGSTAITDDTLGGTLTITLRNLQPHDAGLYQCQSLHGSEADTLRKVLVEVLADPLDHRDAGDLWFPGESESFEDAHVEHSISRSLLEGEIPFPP
In words: Biacore T200 binding kinetics to hTREM2. Particulars: analyte hTREM2. As for the experimental part:
The binding of the TREM2/TfR-binding protein RS9.F6/3C35.21.17 to TREM2 and TfR was measured using SPR on a Biacore T200 instrument. To measure TfR binding, anti-human-Fab was immobilized on a CM5 chip, and the TREM2/TfR-binding protein was captured. Full-length human TfR or human TfR apical domain at serial dilution (e.g., concentrations of 1-1000 nM) was flowed over the chip (180 second association time) and then allowed to dissociate. Fitting was performed using a 1:1 binding model. To measure TREM2 binding, anti-human-Fc antibody was immobilized on a CM5 chip, and the TREM2/TfR-binding protein was captured. A range of concentrations of recombinant TREM2-His protein were flowed over the chip, and allowed to associate and dissociate. The resulting sensograms were fitted using a 1:1 Langmuir model to estimate kon and koff (FIG. 10).
The affinities of RS9.F6/3C35.21.17 for human TREM2 and TfR were determined by surface plasmon resonance using a Biacore™ T200. Biacore Series S CM5 sensor chips were immobilized with a mixture of two monoclonal mouse anti-Fab antibodies (Human Fab capture kit from GE Healthcare). Serial 3-fold dilutions of each antigen were injected at a flow rate of 30 μL/min. The binding of the antigens to captured antibody was monitored for 30 to 180 seconds and then their dissociation was monitored for 30-300 seconds in HBS-EP+running buffer (GE, # BR100669). Binding response was corrected by subtracting the RU from a blank flow cell. A 1:1 Languir model of simultaneous fitting of kon and koff was used for kinetics analysis.
Background: In SPR one partner is held on a chip, and binding of the other changes the refractive index at the surface.

T1 sequence (Q9NZC2 19-230): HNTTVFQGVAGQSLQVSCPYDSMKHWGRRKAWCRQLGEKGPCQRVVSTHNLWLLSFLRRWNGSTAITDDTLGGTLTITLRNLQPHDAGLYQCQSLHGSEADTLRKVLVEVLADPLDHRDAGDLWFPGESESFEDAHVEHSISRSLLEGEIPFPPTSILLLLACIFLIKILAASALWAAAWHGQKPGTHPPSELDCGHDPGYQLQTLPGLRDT
T1 sequence (O43914 22-113 partner): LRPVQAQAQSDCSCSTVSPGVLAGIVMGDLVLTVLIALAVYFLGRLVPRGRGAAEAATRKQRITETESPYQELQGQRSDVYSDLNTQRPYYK

B1: 21D11: anti-TREM2 antibody clone; VH SEQ ID NO:14, VL SEQ ID NO:25 (antibody, V domains shown)
VH: QVQLQQSGAELARPGASVKLSCKASGYTFTSYWIQWVKQRPGQGLEWIGTIYPGDGDARYTQKFKGKATLTADKSSSTTYMQLNSLASEDSAVYYCARNGITTAGYYAMDYWGQGTSVTVSS
VL: DIQMTQSPASLSVSVGETVTITCRASENIYSNLAWYQQKQGRSPQLLVYAATNLADGVPSRFSGSGSGTQYSLKINSLQSEDFGYYYCQHFWGTPYTFGGGTKVEIK
Take B1: in test [1] (no liposomes, HEK293 TREM2/DAP12), the “p-Syk induction by antibody alone (in words)” value was “do not induce p-Syk”.

B2: 3D3.A1: anti-TREM2 antibody clone; VH SEQ ID NO:18, VL SEQ ID NO:29 (antibody, V domains shown)
VH: EVQLQQSGPELVKPGASVKISCKTSGYTLSEYTMHWVIQSHGKSLEWIGGVIPNSGGTSYNQKFRDKASLTVDKSSSTAYLELRSLTSEDSAVYYCARGDDSYRRGYALDYWGQGTSVTVSS
VL: DIVMSQSPSSLAVSVGEKVTMSCKSSQSLLYSSNQKSYLAWYQQKPGQSPKLLIYWASTRESGVPDRFRGSGSGTDFTLTISSVKAEDLAVYYCQQYFSYPPTFGGGTKLEIK
Turning to B2, the “interaction with lipid ligand to activate p-Syk (in words)” value in test [1] (FIG. 9A, 30 nM antibody, PS/PC liposomes, HEK cells) is listed as “additive with lipid TREM2 activators”. Moreover, in test [2], the “ka” value is 480000 M⁻¹ s⁻¹ and the “kd” value amounted to 0.019 s⁻¹.

B3: RS9.F6: anti-TREM2 antibody clone; VH SEQ ID NO:24, VL SEQ ID NO:35 (antibody, V domains shown)
VH: QVQLQQPGAELVKPGASVKLSCKASGYTFTSYWMHWVKQSPGRGLEWIGRSDPTTGGTNYNEKFKTKATLTVDKPSSTAYMQLSSLTSDDSAVYYCVRTSGTGDYWGQGTSLTVSS
VL: DVVMTQTPLSLPVSLGDQASISCRSSQSLVHNNGNTFLHWYLQKPGQSPKLLIYKVSNRFSGVPDRFSGSGSGTDFTLKISRVEAEDLGVYFCSQTTHVPPTFGGGTKLEIK
On to B3, for which, in test [2], the “ka” value is 150000 M⁻¹ s⁻¹ and the “kd” value is 0.00034 s⁻¹.
